This is an account of results in publication PMC8752898 (The Journal of Biological Chemistry, 2021).

For one assay, the system named is FLAG-MYC3 (full-length). The assay can be described thus: AlphaScreen assay of interaction with FLAG-MYC3. To be noted: FLAG-MYC3 50 nM, triplicate, in words; for AlphaScreen interaction of biotin-conjugated peptide with MYC3: Biotin-MED25^CMIDM 50, 150 or 250 nM. The class given is binding, Arabidopsis.
The target of assay [1] is T1, His6-SUMO-tagged MYC3 (44–238) (Arabidopsis thaliana, UniProt Q9FIP9).
T1 sequence (Q9FIP9 44-238): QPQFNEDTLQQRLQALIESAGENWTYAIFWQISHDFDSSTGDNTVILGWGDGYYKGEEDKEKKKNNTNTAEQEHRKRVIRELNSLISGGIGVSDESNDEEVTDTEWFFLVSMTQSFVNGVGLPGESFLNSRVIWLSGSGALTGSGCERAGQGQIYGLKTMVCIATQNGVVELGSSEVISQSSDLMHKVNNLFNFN
The assay can be described thus: Fluorescence anisotropy. Type of assay: binding. To be noted: in words.

The target of assay [2] is T2, His6-SUMO-tagged MYC3 (44-238) (Arabidopsis thaliana, UniProt Q9FIP9 44-238).
T2 sequence (looked up): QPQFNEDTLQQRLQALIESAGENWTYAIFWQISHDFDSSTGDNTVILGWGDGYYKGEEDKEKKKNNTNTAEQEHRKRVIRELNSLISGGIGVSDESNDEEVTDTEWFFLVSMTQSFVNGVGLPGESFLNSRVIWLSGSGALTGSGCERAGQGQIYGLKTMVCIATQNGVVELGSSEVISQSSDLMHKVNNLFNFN
The assay can be described thus: fluorescence polarisation.

Ends that are not written are not given here.

Regarding “MED25^CMIDM: CMID-like MYC-interacting domain, amino acids 614 to 655 of MED25 (YVGKADFLVFRAMSQHGFLGQLQDKKLCAVIQLPSQTLLLSV; also: biotin-conjugated)”, in the assay on FLAG-MYC3 (full-length), the “AlphaScreen interaction of biotin-conjugated peptide with MYC3” value is recorded as “confirmed”. Moreover, in assay [1] (Fig. 5B), the “interaction between MYC3 and CMIDM in FA assay” value was “confirmed”. Take “Biotin-MED25^CMIDM: biotin-conjugated CMIDM peptide of MED25 (614–655) (YVGKADFLVFRAMSQHGFLGQLQDKKLCAVIQLPSQTLLLSV; not fully specified (N-terminus); also: biotin-conjugated)”: in the assay on FLAG-MYC3 (full-length), the “AlphaScreen interaction of biotin-conjugated peptide with MYC3” value is listed as “directly interact with MYC3”. Moreover, the “AlphaScreen interaction of partial peptides with FLAG-MYC3” value in the assay on FLAG-MYC3 (full-length) (peptide 150 nM each (Fig. 4D)) is listed as “strong interaction”. For “JAZ10^CMID: cryptic MYC-interacting domain of JAZ10 (26–58aa) (FQKFLDRRRSFRDIQGAISKIDPEIIKSLLAST; also: 5-carboxyfluorescein-conjugated) [reference compound]”, the “binding affinity for MYC compared with Jas motif of JAZ and MED25” value in assay [1] is “stronger binding affinity for MYC than both the Jas motif of JAZ and MED25”.

As for FQKFLDRRRSFRDIQGAISKIDPEIIKSLLAST (peptide, UniProt Q93ZM9 26-58, looked up, also: 5-carboxyfluorescein-conjugated) [fluorescein-conjugated JAZ10^CMID (26-58aa)], in assay [2], the affinity, expressed as Kd, was 0.47 µM. Turning to YVGKADFLVFRAMSQHGFLGQLQDKKLCAVIQLPSQTLLLSV (peptide, UniProt Q7XYY2 614-655, looked up, also: 5-carboxyfluorescein-conjugated) [fluorescein-conjugated MED25^CMIDM (614-655aa)], the Kd in assay [2] turned out to be 1.9 µM.
